Experiment: label from the status in PepcDB records
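Note: failed if final PepcDB status was selected cloned or expressed and not failed if soluble or beyond.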

Row | Sequence | protein production
1 | MDMSLHFLSQGDLSGVWGRVYWRRRAGFKAIKIQSAFKAYLARKALWAGKCNGWDSSALTKEDIKAIWLRKQEGLKELFLQERRSPHMLEDSLSTPRQRVGLMDSLFVNYKKDGDKVSLWTSFVCENSKINNAKKSSLTTYQHNC | not failed
2 | MDMVTVTAKTVEEAVTKALIELQTTSDKLTYEIVEKGSAGFLGIGSKPAIIRAKRKETLQDKAIEFLEQVFDAMNMAVDISVEYNETEKEMNVNLKGDDMGILIGKRGQTLDSLQYLVSLVVNKSSSDYIRVKLDTENYRERRKETLETLAKNIAYKVKRTKRSVSLEPMNPYERRIIHAALQNDKYVVTRSDGEEPFRHVIISLKRENRRDRNDRSDRNEK | not failed
3 | MDNANCVGGCKFETRSFQYRRRIPYSLGADPLPPVHPLSLKNLVDIDTDLISSQLYELYDSIILNDSGLERRYAFVQKLEQILKKEFPYKNIKTSLFGSTQSLLASNASDIDLCIITDPPQCAPTTCEVSAAFARNGLKKVVCISTAKVPIVKVWDSELQLSCDCNINKTISTLNTRLMRSYVLCDPRVRPLIVMIKYWAKRRCLNDAAEGGTLTSYTISCMVINFLQKRDPPILPSLQMLPHLQDSSTMTDGLDVSFFDDPDLVHGFGDKNEESLGILFVEFFRFFGYLFDYEHFVLSIRHGTFLSKRAKGWQFQLNNFLCVEEPFHTSRNLANTADEITMKGIQLEFRRVFRLLAYNCNVDDACSQFTFPSLTDTSFMDDYVNELQLEIVPGFSHGRDSSDTSCTESPPEPSHFAWAFDPYNATASPYYNQNINSSIDYSSIYSNDVPAIPPNVPYTFVDPYTYACYINNNSYLPPSYMDFYTWYNSPYPKSSHHFDERHGGDRHEKNLSNSRRYSRNKFHKKKQSSGPFQYYPDAFSFTPTDNNSPPSNSSSSEVVSPVSLHSEPVLSTVQAFKS | failed
4 | MDNITNESDNLIQIFSHNPLALISCIILGIGLLFTFASRQFILVRVLLGNVSFIKQRILGVIFGIVGALLLLFATGNLNL | failed
5 | MDNLMLNNKIYLEGTVVSELEFSHEMYGEGFYTFNLEVMRLSDSKDLLNITVSERLITTMDLKIGTEIVVEGQLRSYNKFIDGNNKLILTVFARNIEYCEERSKNPNEIFLDGFICKEPVYRTTPFGREIADLLLAVNRSYNKSDYIPTIAWGRNSRFCKTLEVGDNIRIWGRLQSREYQKKISETEVVKKIAYEVSISKMEKVSVESEQNESGEEISLEHHHHHH | failed
6 | MDNLNVFANEDNQVNGLKRPPPSRVCPRCDSDNTKFCFYNNYSESQPRYFCKNCRRYWTHGGALRNIPVGGSCRKPKRLKVDQSSISEMVSVENQPINHQSFRQTQENNEFVRSFDASSSATVTAVPNHFGYLSELHGVTNLLPIQSFRTMDCLDFGDESFQQGYYDVGSNDLIDNPLINQSIGGYVDNLTSYCINQVEPKLQPRYEHES | failed
7 | MDNRKRLAYAIIQFLHGQLRHGGLSCDAQESLEVAIQCLETAFGVTLEDSDLALPQTLPEIFEAATSSKQEMPQDPRAPDRTPPSEEDSAEAERLKTEGNEQMKLENFEAAVHLYGKAIELNPANAVYFCNRAAAYSKLGNYVGAVQDCERAIGIDPGYSKAYGRMGLALSSLNKHAEAVAYYKKALELDPDNDTYKSNLKIAELKLREAPSPTGGVGSLDIAGLLNNPHFITMASSLMNSPQLQQLMSGMISGGHNPLGTPGSSPQQSDLASLIQAGQQFAQQMQQQNPEFVEQIRSQVVRSRTPSASHEEQQE | failed
8 | MDNRSASLHSDIDTVLNNYDYDFAEVEIAVLGNGHINNTYKLTTPEVEFVLQQINHDVFPKTAELSSNAQKINLHLQRQKNIGNYPLSIPQQILSKTGETYSKVGTNYWRLMEFISNSYTLEEVESPEQAALVANAFAEFSCTLSDFPVEELAVIIEDFHDISFRMRQLNEAVENDLQDRLSSCQTLVNFCLDQQDFINHVIDISKKLPLHVTHNDTKINNLLFTEGDTPCAVIDLDTCMPGLLMHDFGDMVRTCCSNLAEDDTNIDAMIIKLDIFSALIQSYQNAFGTKMSALEKDSLIVGTKSVPFSLGTRFLTDYLNGDSYFQVSREKHNLDRAFNQIQLFILLCEAEPELIKLAMQALEHHHHHH | failed
9 | MDNVIKLVPSRWVSESVLMSISGLKKNTIKTARETSWMEGLEYKHVAPDGQPYDNSMCFYNRDEIDKWIERQPAAISRKKSA | failed
10 | MDPDNRVRQRAVKTLGKRGNPDVLEDLMEALKDSRQPVQEAASEALRKIIAASDSVPVLVKALDATDRNVRKAAIEALWKAGTPEAIPPLLRELDDADWYLRSRAADALADIASPEAALGLIKVMDIHDSPVKKIIVNALGKIGTVEAVEGLVKALEDLEHHHHHH | not failed
11 | MDPITHGALGAACAQAALGKYDKRIPWQAGALAGMAPDLDVFIRFSQEPLSLEQWHRYLTHSLMFIPIGGLIVALFLLCFSQYRQYWKITIGASLVGYATHCLLDSLTSYGTVLFWPWSDSRISWDIISIIDPVFTLPLLLGTAWSVIYQNQKAVIASLFFCILFLIFNTILHNRAVDGIHQYATTNNFKINHPRALPKLASSTYWRIIAKQQDCLIIAEAKTSLFYPTTIRLIRQALSFNESMIPFALSSGQKSDLATFHWFTDGFLIVANKNPLILADARYTIDDNPIFSLWGIEILPGQEHINKLSLPKINEYCESPDSERYKEDGLN | failed
12 | MDPKHKKLLRTQRLFLSEELLVDDLIIQYLYQEEILTESHLEEIQSESSSRNKTLKLLDILPSRGATAFHHFIKSLEKDFPWIRDKLLQLNEEEESPPPPFTVQCGVPDHILLTVPTTLHLNQLASRLGSEWKSVLLDLGLSCADLYRCCSDHPLAVQSQVLAGLVMWTQRNGRGATVQRLIQSLQAADVPPSVLQQVFK | failed
13 | MDPSEYPFDIKAYKRQSEIEEMYIINRFRERRNKIGEDYPPHLSNSDNYFTQRYDAAKKEGISPLPKYTTTMRMFAYGVAADAVDEYSKIGGTTTLECLRRFCKGIIKLYETEYLRAPTQDDLQRILRVSEMRGFPGIIGSINCMQWEWKTCPTVWEGNTTRVNFFVSQHPYNIAYYLADGIYPSYPTFVKSIRLPQSEPDKLFVQRQEACHKDIERAFGVLQARFKIIRKPAGLWDIFELAIIMRSCKWVEYTTTILDPSATPICKSCA | failed
14 | MDPTEMRYLEEENGAMMKTFKDAVTGFATGKTSLVFIGVEQLVQNFRAKRDFFNGAHITMTKVARTHY | failed
15 | MDQCYFENSLSTECIIRSASRSDGCQMPKLFCQNLPPPLPPKKYAITSVPQSEKSESTPDVKLTEVFKATSHLPKHSLSTASEPSLEVSTHMNDERHKETFQVRECFGNTPNCPSSSSTNDFQANSGAIDAFCQPELDSISTCPNETVSLTTYFSVDSCMTDTYRLKYHQRPKLSFPESSGFCNNSLS | failed
16 | MDQKEAPSFTEASVHDPSVIKVEDTFYVFGSHLAAAKTEDLRNWTQIATHVHEGNPLIPNVFVELAEAFEWANSNTLWAADVIQLEDGRFYMYYNACQGDAPRSALGVAVADDIEGPYENLGVFLKSGMWGEESPDGTIYDANVHPNAIDPHVFFDEEGKLWMVYGSYSGGIFILEMDPDTGFPLPGQGYGTHLMGGNHSRIEAPYIHYDKETEYYYLYVTFGGLDSTGGYNMRVARSKQPDGPYVDGEGHLMSEVRGAPGTLFDDASIEPYGVKQMGNFLFKRELGERGTGYVSPGHNSVYYDDEVDKIFLFFHTRFPERGEAHEIRVHQMFMNRKGWPVIAPYRYLEHHHHHH | failed
17 | MDQTIHHQIQQALHFRTAVRVYKEEKISDEDLALILDAAWLSPSSIGLEGWRFVVLDNKPIKEEIKPFAWGAQYQLETASHFILLIAEKHARYDSPAIKNSLLRRGIKEGDGLNSRLKLYESFQKEDMDMADNPRALFDWTAKQTYIALGNMMMTAALLGIDTCPIEGFHYDKVNHILAKHNVIDLEKEGIASMLSLGYRLRDPKHAQVRKPKEEVISVVK | not failed
18 | MDRAAFPDCCVFLFGFFRRDFGAAGLYGMHDAGLLTGVQLVVAAITLTLFMLCIAQFMMTVKERGFKMALAISGFIFPSALLAGFIVNTLMTALRVKL | failed
19 | MDRATEPVLFFFMAFFWALNYVMVKFAYAYDLSSSILLMRVLYASIFSSLIFIRQIKLPKSPLEHLKVFILANLNITGFFSLWFFGETGVSAAVTSIVIYSYPILATAFSYLFLGDRFGAMKTLGLILGFAGLVIIFIRSINVENLVDLIMLLVAAISWAIGTVFYRKYLLGYDSAGLNTLQLLYALPVVLLISLFTGGINIGLLQLKFNLIMIYMGSFGTAIAYFIYLYLYRKYKVSSISAYFFLVPAISVVLAAVLLKEPISALTIAGFAVMSAGIFLSGSFK | failed
20 | MDRFDAMRAFARVVETGSFTKAADTLHMSKTSVTQLVQQLEARLRVRLLNRTTRKVNATADGAAYYERVRQLLADLEDAETSLSGASATPGGRLRVDVPSPFASTILVPALPAFQARYPDILLHLGVSDREVDLIDENVDCVIRGGQIGNLSLAARHVGDLQLGVYASPGYLARAGVPAHPRELQDAQHRIIGFSWSRARRLFPCAMRRRADERIEVAGRHALLLDEGNAYLAAGLAAMGVIGVPTYMAEAHVERGALIRLFGDWRLDPMPLYIAYPQNRHVSAKLRVFIDWIVELMARHAPVTDAPPPHRSARMPGGPAAIPTDITGA | failed
21 | MDRIVEIEKYSFDETYETSLRPSNFDGYIGQESIKKNLNVFIAAAKKRNECLDHILFSGPAGLGKTTLANIISYEMSANIKTTAAPMIEKSGDLAAILTNLSEGDILFIDEIHRLSPAIEEVLYPAMEDYRLDIIIGSGPAAQTIKIDLPKFTLIGATTRAGMLSNPLRDRFGMQFRLEFYKDSELALILQKAALKLNKTCEEKAALEIAKRSRSTPRIALRLLKRVRDFADVNDEEIITEKRANEALNSLGVNELGFDAMDLRYLELLTAAKQKPIGLASIAAALSEDENTIEDVIEPYLLANGYIERTAKGRIASAKSYSALKLNYEKTLFEE | not failed
22 | MDRKLLHLLCSPDTRQPLSLLESKGLEALNKAIASGTVQRADGSIQNQSLHEALITRDRKQVFRIEDSIPVLLPEEAIATIQIANFPDKLEHHHHHH | not failed
23 | MDRLAHMQMFVAVVEAGSITAAAERMNLAKSAVSRRLAELEAGLGVSLIQRTTRRLNLTESGRTYYARCVAILADVEDAEAEVSQGHGALRGRLKVALPQAFGLLHLAPLIQTFMKRHPDVRLELDFNDRQVDLMQEGFDLAIRIATLADSTLIARRLAAIPHRVVASPGYLARRGTPRAAADLTQHDCLAYSNVRDPGLWSYRDPGGEPGQVRVVVRLAASSGEFLLQAAIADEGLVLLPAFYLHAALRSGQLSEVLADHRWPEPAAYAVYPPTRHLSARAHAFIDFLAGHLGGAGEPPAGDEVAPTLAPNTSAG | failed
24 | MDRLNQIQIILVETSLSANIGSAARAMKTMGLSNLRLVRPKNPLDEQATALAAGAKNILDNAQIFNTFDAAIADCQLIIGTSARLRHLQSTLVEPRECGKLIINNTNQHKIALIFGRERIGLTNEELLKCHYHLNVPTNPEYESLNLAMAVQLACYEIRMAWLELQKKPIIQPLTEEKNYPTAAAMAHFFDHTERL | not failed
25 | MDRNEIGLNAGKVWQLLSNNEKWGYGTLKRKSGLKDKELGAALGWLSRENKIEFDQCDEELYVYLCVNVYIG | failed
26 | MDRNGANMLDGRVESDAKGSFRKDYTKMENNNNGANISDGIYRIIRSFKSFSHFFIRYEEETKEREAEMEIGFPTDVKHLSHIGVDGTMTTFDNTSSSFPFSGFHLTGTVV | failed
27 | MDRNSKIVVGLVAVLSIAGLVLSLAGLLEGGEGTIAIIPVHGAIAYDTAGFSDGVDPDDIKELIAEANSDPSVKAIVLDINSPGGTPVASEELMDAINKSEKPVVSWISDSGTSGAYLAASASDRIVASPSAWVGSIGVILDLTDLSQMYRQMGINKYAIKAGEYKDMGADYRMITDEERQMLQSMVNEEYDYFIKTVAANRNLSVSYVKSLAEGRIFTGRQAVRNRLVDFTGGKDYAVEVAAKLAGVKNYNTITLEPPSGFLRVLSSMFSRLGFASGNTTEELQLH | failed
